Test results taken from the DeepSol protein solubility set.

Assay: soluble on expression in E. coli; label from the status in PepcDB or PDB records
In the case of “MGSDKIHHHHHHMVLPGFFVPVKGWCPLPGVVIFTDVPAVVPATVSAHEAACPAGSPVLPRVSGLPPLRDGSRGRDCPMGASHVWDLPFSPPAGAALPCRRSRSHGLAPAPRVYGMLLVRAWRCSMDRDTVAGLMADALLERRFRHNDGAHPALAALRELAVNQGTDAGRRMVADDPHEVGSPPLSPIDPVELLQHDGALPSLPTVYVELRQRLADPDCSVREAAEVITRDAGLTAWLLRVVNSASYGLSGRVDTVTQAVAVVGMRQLETMVASGMLQSLMRSVPRGLVDMERLWRHSLAVGGAAREIWRLMGRPDPERLFVAGVLHDVGYLAFVMMAPQKAAQLVPRLRASHLPGHLAERELLGFDHAKLGGMLLHKWNMPVPLVMSVLRHHEPESVPSMPEPSVIHLADIVARAMGYGPDAESAVPPLSASAWEASGLTPQHLEAVANAMTAMVDDLGTAVMCTTV”, the “soluble on expression in E. coli” value is reported as “not soluble”. In the case of “MGSDKIHHHHHHMVLSGSPYERGFQHGNRFADLISQALDRRLASLSAADLSQAHKRASDVLATIDVMAPHVGTELRGIADGAGREVSGIVLRSSFELLASPTATGCSGLAVQTRDGALIAQNWDGPLGSDVEQALFIHVGTSGFEFATVAAVGALGWVGFNRAGFGFVNNDLVLKSRCDGIPSQIVRRVFLGCPDVNAAVEAAKSLPHMAGRAYLFGDASNKIASIEVSARHGVSVCRSGSFLAHTNHALNDQIRADEDAELLARQYPSSQKRLEVLKMREAGCADACEVMDILRDRTNAPDSVCKQTSLREPTQTAFSVVMQCRNRTLFLVRGMPSATEYQRISL”, the “soluble on expression in E. coli” value is reported as “not soluble”. For “MGSDKIHHHHHHMVNEQRVLDTFLELVQIDSESKEEAQICAHLKETFTALGCDVFEDDASSKTEHKGNNLIITLPATKDGVDKIYFTSHMDTVFPGQGIKPIIEDGYVKTDGTTILGADDKTGLASLIELVHVLNETNQPHGKIQFVITVGEESGLVGAMVLDPSKIDADYGFALDSDGKVGDIITAAPTQAKVNAKIYGKTAHAGVAPEKGISAITIAAKAIAKMPLGRIDEETTANIGRFSGGGPSTNIVCDYVEIFAEARSLVAPKMEAQTAKMKAAFEEVAAEFGGRAEVEVKVMYPGFKFEDGDQVVEVAKAAITQLGRTPRLLHSGGGSDANVIAGFGIPTVNLAVGYEDIHTTNEKMPIEELVKTAELCVTLVDYITNK”, the “soluble on expression in E. coli” value was “not soluble”. In the case of “MGSDKIHHHHHHMVSEECSSFFYLHNSDFNMFGKKKNEDYSVKTVKVGVDKLTTIALGTMVKGTITVEGDLRLDGIIEGNVSCRGKVVIGPQGRIKGNVTCTGAVLHGMLQGDIQVAEDLIMKSGCTMNGDVYTCKLEIESKARFNGTCNTTEKDTLVTSQVVKPETVDTEK”, the “soluble on expression in E. coli” value is reported as “not soluble”. In the case of “MGSDKIHHHHHHMVTSPSLKGLQAFEAAARAGSFAAAAEELSVSAAAVSQLIRTVEEQMGRKLFHRVNRKVVLTEAGVEILPRLTMAFQEIGSVSRELDGDAFRPRLVVSVPPSMAMGWLSQRLAGFVASHGAADISLRGDDDPVPFDRELIDIRLSYGPHYREHPTEDIARDAVYPVCAPGLASAIKADGGPLAGLPLIHTDWGPTGASFPSWRNWFEAEGVQPGRAAQRGLSANSSRAALDLAISGLGVTLAQGVYCAEALEDGRLVRPAARVIALRQPYCLTIPERSARRDVVAAFRDWLIEECRRAVGSPALR”, the “soluble on expression in E. coli” value is reported as “not soluble”. With “MGSDKIHHHHHHMWGFPRAGSSPALGTSRKRRSFLRFFLEENGVKEIELFGTKVLSGTRREFLNAIEERIEKNIKTFVVTMNASILLKAIEDAGYRAIVNSADLVVPDGFGVVWAMKTLTGETTERLPGVEIMKHLCERSKEKGWKVYLLGTKREIVEKAKQVLERSGVRVVGCHDGFFSEKESPKIVEDVNRSSTDLLFVGMGVPRQEEWIYRNFPQLNVKLAMGVGGSIDVVSGKKKRAPEWVQRMNLEWLYRFFQSPLSKRKVPVQVSKFVFFVLREKLKNRN” the “soluble on expression in E. coli” value was “not soluble”. For “MGSDKIHHHHHHMWIVLDTNIYFNQWLLEGANFRVFRNFCNNTGATLLLPEVVKQEVQNKYDGELAQARIELDKLAAKFSKLGVECPSNLVVSDDYDFDQLVREQYRNVILVPYSGVAHEQLVEKALAPKLPFREKEKGYRDALMWLSILDYVKESGFKESIHFVNANSKDFYSNKSGGLTLHEDLKDDLRARNMETNIIPYTSLNEFVEGHVLQELHGVDWMDFYSEFNGELDSDVCVEAIAWLDECSLSVLREKLVEANYPGLIMDGVFAASFETWDGVEDSDILAMRKIDEDRYFIDYAFDIRGLEVKLLSSPTSPASGYFGAYIDVEIDNDLATTSFFTRADFKASVVFNITAEVVEDVDVTSFKFRPR”, the “soluble on expression in E. coli” value was “not soluble”. For “MGSDKIHHHHHHMWQAISRLLSEQLGEGEIELRNELPGGEVHAAWHLRYAGHDFFVKCDERELLPGFTAEADQLELLSRSKTVTVPKVWAVGADRDYSFLVMDYLPPRPLDAHSAFILGQQIARLHQWSDQPQFGLDFDNALSTTPQPNTWQRRWSTFFAEQRIGWQLELAAEKGIAFGNIDAIVEHIQQRLASHQPQPSLLHGDLWSGNCALGPDGPYIFDPACYWGDRECDLAMLPLHTEQPPQIYDGYQSVSPLPADFLERQPVYQLYTLLNRARLFGGQHLVIAQQSLDRLLAA”, the “soluble on expression in E. coli” value was “not soluble”. With “MGSDKIHHHHHHMWVCGLGVIRFGPAGKPVEFKGDIVKVPEFLRSIGLDALEYEAVRGVRISEAKARRLGEAARENGVILSMHAPYYVNLSSPDDSVVERSIKRLYDSMIASEWMGSYAVVVHPGYYKGLKSREEAVKRVIEALNRLIESLPSWVKTPWIAPETMGKQSQVGSLEETVEICLNTPRCRPCVDWAHLYARAEGKFVTSVDQVVKAIEYIESNLGREAVDPLHTHFSKIEYGKGGERMHHTLREEGYGPDWRIVCRAYKETGINAVVISESPILEKDALLMKSICKGEA” the “soluble on expression in E. coli” value was “not soluble”. With “MGSDKIHHHHHHMYDLQELEAFVSVVRTGSLTASTRDLGLPKSTLSRRIRQLEENVGQPLLLRQSRKIVPNDAGRVFYRYCNDILELVVQGREALDELKAEVTGKLELRCHESFVRGWFSGVVESFMADHDDLRVAIHTQRNLPEAVEDGVCIWLGETGETALRQEVLGVLKQGIFGSPAYFRQHGKPAAPGELAHHPWVDLLGMADTGVILHHSRQGNFPLSLPDRRFTVDQFNVQGDAIAAGRGLGLMPVWLVERRLTAHPGSFQSCLPEWYGPDLPVTLLYPHGVLPRRVRAFIAHLRSCIPEEWTGGGGTATQAVPKSGTHHSNT” the “soluble on expression in E. coli” value was “not soluble”. With “MGSDKIHHHHHHMYHDVSYLLSRLINGPLSLRQIYFASSNGPVPDLAYQVDFPRLEIVLEGEFVDTGAGATLVPGDVLYVPAGGWNFPQWQAPATTFSVLFGKQQLGFSVVQWDGKQYQNLAKQHVARRGPRIGSFLLQTLNEMQMQPQEQQTARLIVASLLSHCRDLLGSQIQTASRSQALFEAIRDYIDERYASALTRESVAQAFYISPNYLSHLFQKTGAIGFNEYLNHTRLEHAKTLLKGYDLKVKEVAHACGFVDSNYFCRLFRKNTERSPSEYRRQYHSQLTEKPTTPE” the “soluble on expression in E. coli” value was “not soluble”. For “MGSDKIHHHHHHMYIGCNWSKALKFLLEKDEVKIDYIKAGAYGDFENEFSTMRSMKPILIHGLGKFERTGMKDINLVDFDRANSIIKRCSSPHFGIHLEIKNSDMYEGMRDENIYEYMCKQIQTFKKNIEVPLLLENVPDSPIEHTVFDCYPYFQPKKLTKLFLDNNVDFLLDLTHAKITSKYHKIDVHEYLNGLPLERVREIHVNGSGYDEEGFPMDTHSSMEKEDYDLLRWVLTYSKPYVVTLEYAGTKKEKEADIIASLKTQLREIQNIIISR”, the “soluble on expression in E. coli” value was “not soluble”. In the case of “MGSDKIHHHHHHMYPAKHYQTNEENITHYHEIIESNPLATLLFSHESEIDVSHIPCHFSLKTSNTNTQQLERSTLTAHVSNHHPLAKVLQRSSTVALQLVFHGEDAYISPRDVSKQHSHAQSVPTWNYAKVHVSGIAHEVKDSDDKYQYMAASTAYFEQRRSTNNIDKPWSIEEAPAIAIKKMLNAITIFSINITHLEGRFKLSQNKSKAVQKEIAEQLTTRGVEELGQLMLAL”, the “soluble on expression in E. coli” value is reported as “not soluble”. In the case of “MGSDKIHHHHHHMYPKNTWYVACTPDEIATKPLGRQICGEKIVFYRARENQVAAVEDFCPHRGAPLSLGYVEDGNLVCGYHGLVMGCDGKTVSMPGQRVRGFPCNKTFAAVERYGFIWVWPGDQAQADPALIPHLEWAVSDEWAYGGGLFHIGCDYRLMIDNLMDLTHETYVHASSIGQKEIDEAPPVTTVTGDEVVTARHMENIMAPPFWRMALRGNGLADDVPVDRWQICRFTPPSHVLIEVGVAHAGKGGYHAEAQHKASSIVVDFITPESDTSIWYFWGMARNFAAHDQTLTDNIREGQGKIFSEDLEMLERQQQNLLAHPERNLLKLNIDAGGVQSRKVLERIIAQERAPQPQLIATSANPA”, the “soluble on expression in E. coli” value is reported as “not soluble”. In the case of “MGSDKIHHHHHHNGNGDKSLENWIWDAACSIRGAQEAAKYKDFILPLIFTKRLCDVFDDELNRIAEKVGSRAKAFKLVAMDHNLVRFYLPLQPQNPDDPVWSVIRKLSDKIGEKLTDYLREIAKANPLLNGIINRVDFNATTHGQRDLDDDRLSNLIEKISEKRLGLKDVEPDIIGRSYEYLIRKFAEGSGQSAGEFYTPKEVGLIMAKIMQPEPGMTIYDPCCGSAGLLIKCQLVLQESQGATEKFAPLQLYGQEYTPNTWAMANMNMIIHDMEGKIEIGDTFRHPKFMQAGKLAQFERVVANPMWNQKWFTEKDYDGDELGRFPKGAGYPGSSADWGWVQHILASLDKTGKAAIVLDTGAASRGSGNANKNKEKEVRKWFVEQDLIEGVIYLPQNLFYNTSAPGILLFLNRAKPKERQGKLFFINASLVFAKGDPKNYIPDEEIERIANTFLTWREEEKFSLIVYKDKIAHNDYNISPSRYIHITEEEDFRPIAEILEELEVLEKEAAETNK”, the “soluble on expression in E. coli” value is reported as “not soluble”. For “MGSDKIHHHHHHQPTGTMTTDSKLTSKESALALTNSAYLKNTVFNKMTPGWGCNTILLLEYMTGKATSENSQSNYKDFQDLLVSDRSLYIEDWWQDCYAGIANCNLALQKLGEFENLDASLVNGYMAEVKFMRALYYFYLVRIFGDVPKITTVQSELGELQVSRAPVKEIYDEIIIPDLLEAEQSDLAFSDHTGRVSMGAVKALLADVYLTYAGYPLQGGKSYYAESAKRSLEVIKSNEYTLFTDYESLRLPSQNNKGEFIYQVQFSLNKRHNESVRIFLPSRSGISAYDLEYGSLIPTKEFVESFEKGDKRTEEKQYFFTNYKGHPSKFSPGAAELEFMDLNGYYIYKFFDQVAVDNTAKSDLNWSVYRYTDVLLMYAEAQVNADGTPNQQSIDIVNQIRGRAGLAPFKQTNASAFLEEVWDQRYFDLCYENKMWFDMLRTRKIRDDKSGEYVDFIGYKTNWGKVYTETQLLFPIPLSERQANPNLTQNQGY”, the “soluble on expression in E. coli” value was “not soluble”. In the case of “MGSDKIHHHHHHSDDINQKVAEQLAQKAQSSSLGYDIVESLTVEVGPRLAGSEQDKVAVDWAIAKLQSLGFDRVYKEPVTVPVWRRGIAKASILSPFPQPLVVTALGGSIATPAQGLSATIVRFDTLQDLQNAEAGSLNDKIAFIDAKTERHRDGKGYGQTASGRSRGAVAAAEKGAVGIIIRSIGTDHDRMAHTGMMRYEEGVTAIPAAAISNPDADLINAMLKRDKEVVISLELGSERRGETTSYNVIAEVKGSTKADEIVLIGAHLDSWDEGTGAIDDGAGVAIVTAAAKHILDLPQKPERTIRVVLYAAEELGLLGGKTYAKEHEAELEKHYIAAESDFGAGPIYQIDWRVADTAHSPVINAMKVAEPLGVAAGNNKASGGPDVSMLPALGVPVASLRQDGSDYFDYHHTPNDTLDKINPEALAQNVAVYAQFAWVMANSKVELRPLPPKE”, the “soluble on expression in E. coli” value is reported as “not soluble”. With “MGSDKIHHHHHHSDNAGRTDKQTATVHDSQKDTSSDSKSDNDKKDTKYKSADEITMDDLMSHDETPAEDFELIDNSDEIVIQKYIGKDPIMVIPDEINGKKVVSLGTYALANDKNIVAIKIGNNIKDLGEGVFGNCENLRYVVLGDSVKTIGCNPFLNTNIQEVTLNDGLQKIGEDDINNTVDAPSKNIGMDLKIPESVTEMHLRDFHLIVKAGSYAEQYAKEYAESNNLTYTVE” the “soluble on expression in E. coli” value was “not soluble”.
